We go through one molecule from patent US20240100176A1 (Eli Lilly, published 2024).

Common to all, as to test: capture ELISA: Ab1 on anti-human IgG Fc, His-tagged receptor at 0.04 µg/mL, anti-His HRP
For orientation: In an ELISA, binding on a coated surface is turned into a signal by an enzyme label.

The target of assay [1] is T1, hexahistidine tagged human IL-4Rα ECD K2D (human, UniProt P24394 26-232).
T1 construct: not shown: hexahistidine tag
An excerpt:
(§1) Example 2d. […] Briefly, thirty surface amino acid residue substitutions were introduced individually into hexahistidine tagged human IL-4Rα extra cellular domain (ECD) as follows: K2D, E6R, K22D, P26R, T31R, F41A, L42G, L43G, E45R, E52R, G56R, D66R, A71R, Q82G, K87D, E94R, H107A, D108R, P124R, D125R, D143R, R148D, L155R, R160D, S164R, S168R, Q181R, P192R, K195D, or H197G. Each mutant protein having a single amino acid residue substitution as described above was transiently expressed in CHO cells and purified using standard immobilized metal affinity chromatography techniques. […] The plates were then washed 3 times with PBST and the exemplified human IL-4Rα antibody was added to the wells at a final concentration of 1 μg/mL in PBS-casein and incubated for 1 hour at room temperature. The plates were washed 3 times with PBST, the IL-4Rα mutant proteins were serially diluted 5-fold from 1 μg/mL for 3 points. in PBS-casein and added to the plate at 50 μL/well and incubated for 1 hour at room temperature. The plates were washed 3 times with PBST and a 1000-fold dilution of anti-histidine tag antibody HRP conjugate (R&D Systems, Cat. #MAB050H) in PBS-casein was added and incubated for 45 minutes at room temperature. The plates were washed 3 times, TMB substrate (Pierce, Cat. #34028) was added per manufacturer instructions, the reaction was quenched with H₂SO₄, and absorbance was read at 450 nm on an ELISA plate reader.

Assay [2] has as its target T2, hexahistidine tagged human IL-4Rα ECD K22D (human, UniProt P24394 26-232).
T2 construct: not shown: hexahistidine tag
Description: as §1

For assay [3], the target named is T3, hexahistidine tagged human IL-4Rα ECD P26R (human, UniProt P24394 26-232).
T3 construct: not shown: hexahistidine tag
Description: as §1

Assay [4] addresses T4, hexahistidine tagged human IL-4Rα ECD T31R (human, UniProt P24394 26-232).
T4 construct: not shown: hexahistidine tag
Description: as §1

The target of assay [5] is T5, hexahistidine tagged human IL-4Rα ECD F41A (human, UniProt P24394 26-232).
T5 construct: not shown: hexahistidine tag
T5 sequence (P24394 26-232 F66A): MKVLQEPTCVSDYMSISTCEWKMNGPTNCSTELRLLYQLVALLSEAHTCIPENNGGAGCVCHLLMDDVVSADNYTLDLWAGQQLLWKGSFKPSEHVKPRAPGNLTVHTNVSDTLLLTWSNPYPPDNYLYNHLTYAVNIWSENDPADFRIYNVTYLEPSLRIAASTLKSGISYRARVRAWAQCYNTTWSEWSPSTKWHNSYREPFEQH
Description: as §1

The target of assay [6] is T6, hexahistidine tagged human IL-4Rα ECD L42G (human, UniProt P24394 26-232).
T6 construct: not shown: hexahistidine tag
Description: as §1

Assay [7] concerns the target T7, hexahistidine tagged human IL-4Rα ECD E52R (human, UniProt P24394 26-232).
T7 construct: not shown: hexahistidine tag
Description: as §1

Assay [8] concerns the target T8, hexahistidine tagged human IL-4Rα ECD A71R (human, UniProt P24394 26-232).
T8 construct: not shown: hexahistidine tag
Description: as §1

Assay [9] deals with T9, hexahistidine tagged human IL-4Rα ECD K87D (human, UniProt P24394 26-232).
T9 construct: not shown: hexahistidine tag
T9 sequence (P24394 26-232 K112D): as the sequence (P24394 26-232 F66A) above, with A41F, K87D counted along it
Description: as §1

In assay [10] the target is T10, hexahistidine tagged human IL-4Rα ECD H107A (human, UniProt P24394 26-232).
T10 construct: not shown: hexahistidine tag
T10 sequence (P24394 26-232 H132A): as the sequence (P24394 26-232 F66A) above, with A41F, H107A counted along it
Description: as §1

Assay [11] concerns the target T11, hexahistidine tagged human IL-4Rα ECD P124R (human, UniProt P24394 26-232).
T11 construct: not shown: hexahistidine tag
Description: as §1

The target of assay [12] is T12, hexahistidine tagged human IL-4Rα ECD D125R (human, UniProt P24394 26-232).
T12 construct: not shown: hexahistidine tag
T12 sequence (P24394 26-232 D150R): as the sequence (P24394 26-232 F66A) above, with A41F, D125R counted along it
Description: as §1

Assay [13] concerns the target T13, hexahistidine tagged human IL-4Rα ECD D143R (human, UniProt P24394 26-232).
T13 construct: not shown: hexahistidine tag
Description: as §1

Assay [14] deals with T14, hexahistidine tagged human IL-4Rα ECD L155R (human, UniProt P24394 26-232).
T14 construct: not shown: hexahistidine tag
T14 sequence (P24394 26-232 L180R): as the sequence (P24394 26-232 F66A) above, with A41F, L155R counted along it
Description: as §1

The target of assay [15] is T15, hexahistidine tagged human IL-4Rα ECD S164R (human, UniProt P24394 26-232).
T15 construct: not shown: hexahistidine tag
Description: as §1

For assay [16], the target named is T16, hexahistidine tagged human IL-4Rα ECD S168R (human, UniProt P24394 26-232).
T16 construct: not shown: hexahistidine tag
Description: as §1

Assay [17] concerns the target T17, hexahistidine tagged human IL-4Rα ECD P192R (human, UniProt P24394 26-232).
T17 construct: not shown: hexahistidine tag
Description: as §1

Assay [18] deals with T18, hexahistidine tagged human IL-4Rα ECD K195D (human, UniProt P24394 26-232).
T18 construct: not shown: hexahistidine tag
T18 sequence (P24394 26-232 K220D): as the sequence (P24394 26-232 F66A) above, with A41F, K195D counted along it
Description: as §1

T1 sequence (P24394 other isoform, or with tags, fused parts or gaps): as the sequence (P24394 26-232 F66A) above, with K2D, A41F counted along it
T4 sequence (P24394 26-232 T56R): as the sequence (P24394 26-232 F66A) above, with T31R, A41F counted along it
T2 sequence (P24394 26-232 K47D): as the sequence (P24394 26-232 F66A) above, with K22D, A41F counted along it
T13 sequence (P24394 26-232 D168R): as the sequence (P24394 26-232 F66A) above, with A41F, D143R counted along it
T17 sequence (P24394 26-232 P217R): as the sequence (P24394 26-232 F66A) above, with A41F, P192R counted along it
T8 sequence (P24394 26-232 A96R): as the sequence (P24394 26-232 F66A) above, with A41F, A71R counted along it

B1: anti-human IL-4Rα antibody Ab1 (antibody, human IgG4 S228P, kappa)
heavy: QVQLVESGGGLVQPGGSLRLSCVASGFTFSHSSMNWVRQAPGKGLEWVSYISRATGAVYYADSVKGRFTISRDNAKNSLYLQMNSLRDEDTAVYYCAREPVFDYWGQGTLVTVSSASTKGPCVFPLAPCSRSTSESTAALGCLVKDYFPEPVTVSWNSGALTSGVHTFPAVLQSSGLYSLSSVVTVPSSSLGTKTYTCNVDHKPSNTKVDKRVESKYGPPCPPCPAPEFLGGPSVFLFPPKPKDTLMISRTPEVTCVVVDVSQEDPEVKFNWYVDGVEVHNAKTKPREEQFNSTYRVVSVLTVLHQDWLNGKEYKCKVSNKGLPSSIEKTISKAKGQPREPQVYTLPPSREEMTKNQVSLTCLVKGFYPSDICVEWESNGQPENNYKTTPPVLDSDGSFFLYSRLTVDKSRWQQGNVFSCSVMHEALHNHYTQKSLSLSLG
light: DIQMTQSPSAMSASVGDRVTITCRASQDISNYLAWFQQKPGKVPTRLIYAASSLQSGVPSRFSGSGSGTEFTLTISSLQPEDFATYYCLQWSSYPRTFGQGTKVEIKRTVAAPSVFIFPPSDEQLKSGTASVVCLLNNFYPREAKVQWKVDNALQSGNSQESVTEQDSKDSTYSLSSTLTLSKADYEKHKVYACEVTHQGLSSPVTKSFNRGEC
notes: human kappa light chain; also called anti-human IL-4Rα Ab1; unconjugated Ab1
For B1, the “ELISA (OD450)” value in [1] was 1.09 OD450; in assay [2] it was 0.593 OD450; in assay [3], 0.883 OD450; in assay [4], 0.994 OD450; in assay [5], 1.15 OD450; in [6], 0.965 OD450. The “ELISA (OD450)” value in assay [7] came to 1.1 OD450; in [8], 0.907 OD450; in [9], 0.911 OD450; in assay [10], 1.42 OD450; in assay [11], 1.16 OD450; in [12], 1.01 OD450. The “ELISA (OD450)” value in assay [13] is 1.27 OD450; in assay [14], 1.14 OD450; in [15] it was 1.4 OD450; in assay [16], 1.18 OD450; in assay [17] it was 1.22 OD450; in assay [18] it was 0.992 OD450.
